From US12410262B2, “Peptide conjugates of cytotoxins as therapeutics” (Cybrexa 2, Inc., priority 2019, dated 2025) come the findings set out here.

Data set [1] relates to HCT116 xenografts. Briefly: Tumor and bone marrow pharmacokinetics in a mouse model. The class given is in vivo, athymic nude Foxn^nu mice. The following applies: mouse bearing HCT116 xenograft, single IP dose 10 mg/kg. Here is the method: Six-week-old female athymic nude Foxn^nu mice were obtained from Taconic Labs (Cat #NCRNU-F) and were housed 5 per cage on Alpha-Dri bedding in a disposable caging system (Innovive). Human HCT116 cancer cells derived from colorectal carcinoma were diluted 1:1 in Phenol Red-free Matrigel and subcutaneously implanted into the left flank of each mouse at a density of 2.5×10^6 cells in 100 μL. When xenografts reached a minimal volume of 300 mm^3, mice were administered a single intraperitoneal injection of 10 mg/kg Compound 11 prepared in a vehicle of 5% mannitol in citrate. Tumor and bone marrow samples were collected from fed, anesthetized mice at 1, 2, 4, 8, 16, 24, 32 and 48 hours after compound administration. Total peptide concentrations in tumor and bone marrow were determined via ELISA.
96-well plates were coated with 100 μL/well of 0.1 μM BSA-labelled peptide prepared in 0.2 M Carbonate-Bicarbonate Buffer, pH 9.4 and incubated overnight at 4° C. Plates were washed 4× with an ELISA wash buffer (PBS+0.05% Tween 20), incubated for 2 hours at room temperature with Blocking Buffer (PBS+5% dry milk+0.05% Tween 20) (300 μL/well) and washed again 4× with ELISA wash buffer. […] Luminescence was read from the plate on a BioTek Cytation 5 plate reader.

The nature of data set [2]: Glutathione cleavage study. The class given is in vitro ADME. Particulars: Tris buffer with 10 mM glutathione, Glutathione Challenge (10 mM), 100 μM conjugate, Tris pH 7.5, 37° C. A digest of the protocol:
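Conjugate stocks at 20 mM in 100% DMSO were diluted in 100 mM Tris, pH 7.5, to a final 100 μM. Freshly made glutathione was added to 10 mM, and samples were incubated at 37° C. for up to 24 hrs. Samples were extracted with phosphoric acid and acetonitrile/0.1% TFA, centrifuged, and analyzed by HPLC, with peak areas compared to the time-0 conjugate peak.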

Data set [3] is described as follows: Plasma pharmacokinetics of Compound 11 in a rat model. Type of data set: in vivo, Sprague Dawley rats. The following applies: single IV dose 5 mg/kg. Here is the method:
Male Sprague Dawley rats underwent jugular vein cannulation and insertion of a vascular access button (VAB, Instech Labs Cat #VABR1B/22) at Envigo Labs prior to shipment. Magnetic, aluminum caps (Instech Labs Cat #Cat #VABRC) were used to protect the access port for the jugular catheters allowing the animals to be housed 2 per cage on corn cob bedding for 4-5 days prior to the study. Rats were administered a single intravenous dose of 5 mg/kg Compound 11 prepared in a vehicle of 5% mannitol in citrate buffer. At 1, 2, 4, 8, 24 and 30 hours following compound administration, blood (250 μL) was collected into K2EDTA filled microtainers from fed rats. Plasma was isolated by centrifugation and 100 μL aliquots were transferred to 96-well polypropylene plates on dry ice. Samples were stored at −80° C. until processed for quantification of total peptide by ELISA and released exatecan by LC-MS/MS.
96-Well plates were coated with 100 μL/well of 0.1 μM BSA-labelled peptide prepared in 0.2 M Carbonate-Bicarbonate Buffer, pH 9.4 and incubated overnight at 4° C. […] Luminescence was read from the plate on a BioTek Cytation 5 plate reader.
For quantification of exatecan, a 20 μL plasma sample was added to a polypropylene autosampler vial. […] The samples were centrifuged for 5-10 minutes at 3700 rpm then analyzed via liquid chromatography tandem mass spectrometry (LC-MS/MS).

SMILES strings stand for the structures.

By share remaining is commonly meant the share of the starting amount still present when the sample was taken. Turning to `CC[C@@]1(O)C(=O)OCc2c1cc1n(c2=O)Cc2c-1nc1cc(F)c(C)c3c1c2[C@@H](NC(=O)O[C@H]1CCCC[C@@H]1SSC[C@H](NC(=O)[C@H](Cc1c[nH]c2ccccc12)NC(=O)[C@H](CC(C)C)NC(=O)[C@H](CC(C)C)NC(=O)[C@H](CC(=O)O)NC(=O)[C@H](CC(C)C)NC(=O)[C@H](CC(C)C)NC(=O)[C@H](CC(C)C)NC(=O)[C@@H](NC(=O)[C@H](CC(=O)O)NC(=O)[C@@H](NC(=O)[C@@H]1CCCN1C(=O)[C@H](Cc1ccccc1)NC(=O)[C@H](CC(C)C)NC(=O)[C@H](CC(C)C)NC(=O)[C@H](CC(=O)O)NC(=O)[C@H](CC(C)C)NC(=O)[C@H](Cc1ccc(O)cc1)NC(=O)[C@H](C)NC(=O)[C@H](CCCNC(=N)N)NC(=O)[C@H](Cc1c[nH]c2ccccc12)NC(=O)[C@@H]1CCCN1C(=O)[C@H](CC(N)=O)NC(=O)[C@H](CCC(N)=O)NC(=O)[C@H](CC(=O)O)NC(=O)[C@H](CC(=O)O)NC(=O)[C@H](C)N)[C@@H](C)O)[C@@H](C)O)C(=O)NCC(=O)O)CC3` [Compound 11], the “peptide concentration in tumor and bone marrow (tumor targeting)” value in data set [1] is “effectively targets tumors”. The fraction remaining at 4 h, 100 µM in data set [2] (4 h) stood at 50.1%. This compound also had a fraction remaining at 24 h, 100 µM in data set [2] (24 h) of 10.2%. Also, the stable in plasma result in data set [3] is “at least 30 h”. Moreover, the “exatecan warhead released in circulation” value in data set [3] (after 30 h) is given as “less than 0.002%”.
